# Laboratory results from article PMC7615752, “The histone chaperone SPT2 regulates chromatin structure and function in Metazoa”.
# T1: HsSPT2 WT (Homo sapiens, UniProt Q68D10 1-685)
# T1 sequence: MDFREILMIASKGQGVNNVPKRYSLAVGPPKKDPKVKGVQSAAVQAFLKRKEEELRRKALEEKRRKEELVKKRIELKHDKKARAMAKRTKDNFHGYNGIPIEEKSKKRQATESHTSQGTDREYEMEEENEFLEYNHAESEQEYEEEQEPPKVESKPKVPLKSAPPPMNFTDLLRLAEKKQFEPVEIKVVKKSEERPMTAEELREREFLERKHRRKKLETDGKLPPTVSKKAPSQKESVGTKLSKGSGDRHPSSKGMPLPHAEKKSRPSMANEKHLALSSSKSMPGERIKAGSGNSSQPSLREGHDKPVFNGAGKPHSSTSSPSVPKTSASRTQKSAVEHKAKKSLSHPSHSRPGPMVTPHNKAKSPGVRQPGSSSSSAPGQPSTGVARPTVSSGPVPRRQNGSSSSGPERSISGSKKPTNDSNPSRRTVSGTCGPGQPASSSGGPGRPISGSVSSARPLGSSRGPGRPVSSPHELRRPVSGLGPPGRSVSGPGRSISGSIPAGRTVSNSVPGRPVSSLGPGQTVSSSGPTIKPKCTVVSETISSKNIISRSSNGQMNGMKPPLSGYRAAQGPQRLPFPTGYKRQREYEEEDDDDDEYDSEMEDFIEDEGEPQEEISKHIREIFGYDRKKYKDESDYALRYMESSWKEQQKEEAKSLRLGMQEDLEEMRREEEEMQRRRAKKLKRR
# Target: T1, HsSPT2 WT
# Experiment: EMSA; 1 mM EDTA; 10 nM DNA; 25 mM Tris-HCl pH 8.0, 55 mM NaCl, 1 mM EDTA, 1 mM DTT, 0.1 mg/ml BSA, 1% glycerol, 37 C 15 min; native 8% PAGE
# Settings: protein: recombinant; tags: His6; label: 5'-32P; four-way junction of 4 x 40 nt strands, each arm 20 bp
binder,measurement,value
synthetic cruciform DNA (four-way Holliday junction J3b/J3h/J3r/J3x(40)) (structured_DNA) DNA 1: AGGGATCCGTCCTAGCAAGGGGCTGCTACCGGAAGCTTAC DNA 2: GTAAGCTTCCGGTAGCAGCCTGAGCGGTGGTTGAATTCAC DNA 3: GTGAATTCAACCACCGCTCAACTCAACTGCAGTCTAGAAC DNA 4: GTTCTAGACTGCAGTTGAGTCCTTGCTAGGACGGATCCCT,binding result,binds
